# Reference: publication PMC5113729 (Nature structural & molecular biology, 2016)
# T1: Sp Dcp2(1-243), as part of the single chain (fission yeast (Sp), UniProt O13828 1-243)
# T1 sequence (looked up): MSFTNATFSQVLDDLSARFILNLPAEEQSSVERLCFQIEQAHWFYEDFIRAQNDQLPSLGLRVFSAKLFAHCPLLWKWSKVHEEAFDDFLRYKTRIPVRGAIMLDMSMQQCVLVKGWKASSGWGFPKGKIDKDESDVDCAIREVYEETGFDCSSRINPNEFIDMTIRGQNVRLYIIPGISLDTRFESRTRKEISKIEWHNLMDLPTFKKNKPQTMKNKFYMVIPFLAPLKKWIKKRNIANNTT
# B1: Sp Dcp1(1-127) (natural protein, fission yeast (Sp), UniProt Q9P805 1-127, looked up)
# chain: MEDENILRNAVNLQVLKFHYPEIESIIDIASHVAVYQFDVGSQKWLKTSIEGTFFLVKDQRARVGYVILNRNSPENLYLFINHPSNVHLVDRYLIHRTENQHVVGLWMFDPNDMSRIFNIVKESLLR
# What was measured:
# Sp Dcp1(1-127) = biological target: B1; assay: crystal structure
# [1] = biological target: T1, Sp Dcp2(1-243), as part of the single …; assay: crystal structure
binding result (Sp Dcp1(1-127)),binding result [1],Binder
binds,–,Hs PNRC2(91-121) (domain or fragment) not shown
–,binds,B1
